For this assay, the target named is autologous SHIV_(1157ipd3N4) gp120 monomer (SHIV_(1157ipd3N4)).

B1: unmutated common ancestor (UCA) of the J038 lineage (antibody, V domains shown)
VH: QLQLQESGPGLVKPSETLSLTCAVSGGSISSNYWSWIRQPPGKGLEWIGRISGSGGSTDYNPSLKSRVTISTDTSKNQFSLKLSSVTAADTAVYYCAREVAEDDYGYYQPYFDYWGQGVLVTVSS
VL: DIQMTQSPSSLSASVGDRVTITCRASQGISSYLAWYQQKPGKAPKLLIYAASSLQSGVPSRFSGSGSGTDFTLTISSLQPEDFATYYCQQYNSLPLTFGGGTKVEIK
Turning to B1, the neutralisation of the autologous tier 2 1157ipd3N4 pseudovirus on TZM-bl cells, IC50 came out at 4.97 µg mL^−1.
